# Source: patent US20230151091A1 (NEW YORK UNIVERSITY, published 2023)
# T1: human MuSK (human, UniProt O15146 24-495)
# T1 construct: Recombinant protein coated on ELISA plates (R&D Systems cat. 10189-MK) or on the Biacore chip; also called human muscle-specific tyrosine protein kinase; full length human MuSK
# T1 sequence: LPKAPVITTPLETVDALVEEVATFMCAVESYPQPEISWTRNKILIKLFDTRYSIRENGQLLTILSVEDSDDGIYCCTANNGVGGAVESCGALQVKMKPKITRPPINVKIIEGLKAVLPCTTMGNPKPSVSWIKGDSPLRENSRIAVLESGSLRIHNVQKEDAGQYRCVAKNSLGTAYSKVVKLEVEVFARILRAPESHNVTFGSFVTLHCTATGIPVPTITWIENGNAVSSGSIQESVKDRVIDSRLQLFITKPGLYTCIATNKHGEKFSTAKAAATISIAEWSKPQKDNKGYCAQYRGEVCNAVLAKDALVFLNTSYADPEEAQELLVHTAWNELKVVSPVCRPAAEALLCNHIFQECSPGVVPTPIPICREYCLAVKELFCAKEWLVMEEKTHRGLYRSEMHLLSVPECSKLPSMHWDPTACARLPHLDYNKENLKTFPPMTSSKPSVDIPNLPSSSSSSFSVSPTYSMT
# T2: mouse MuSK (mouse, UniProt Q61006 22-494, limits assumed)
# T2 construct: Coated on ELISA plates or on the Biacore chip; also called full length mouse MuSK; mouse MuSK (in house produced in HEK293 cells)
# T2 sequence (looked up): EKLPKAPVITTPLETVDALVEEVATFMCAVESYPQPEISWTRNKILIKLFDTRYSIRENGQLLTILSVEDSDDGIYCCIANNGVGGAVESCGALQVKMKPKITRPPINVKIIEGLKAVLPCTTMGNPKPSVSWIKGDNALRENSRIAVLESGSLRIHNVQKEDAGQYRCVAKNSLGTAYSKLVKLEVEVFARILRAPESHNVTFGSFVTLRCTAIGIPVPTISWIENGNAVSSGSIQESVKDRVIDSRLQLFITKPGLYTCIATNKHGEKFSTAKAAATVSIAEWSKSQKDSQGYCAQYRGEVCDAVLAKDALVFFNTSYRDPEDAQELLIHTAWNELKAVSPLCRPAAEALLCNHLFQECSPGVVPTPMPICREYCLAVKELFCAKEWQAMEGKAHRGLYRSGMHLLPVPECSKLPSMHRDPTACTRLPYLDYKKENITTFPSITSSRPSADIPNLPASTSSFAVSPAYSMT
# Key:
# human MuSK [1] = molecular target: T1, human MuSK; test: ELISA, plate coated with human MuSK at 0.2 µg/ml, dilution series of mAb, goat anti human Fc-HRP and TMB, OD 620 nm (8 min)
# Method: (§1) An ELISA plate was coated with human MuSK (R&D Systems, cat. 10189-MK) or mouse MuSK (in house produced in HEK293 cells) at 0.2 μg/ml. After washing and blocking the plate, a dilution series of the anti-MuSK antibodies was applied and allowed to bind for 2 hours at room temperature. […] OD at 620 nm was measured with a 96 well ELISA plate reader.
# mouse MuSK [2] = molecular target: T2, mouse MuSK; test: ELISA, plate coated with mouse MuSK at 0.2 µg/ml, dilution series of mAb, goat anti human Fc-HRP and TMB, OD 620 nm (8 min)
# Method: as §1
# mouse MuSK [3] = molecular target: T2, mouse MuSK; test: Biacore, Fab
# From the text: (§2) For affinity determination, a CMS chip was coated with either human or mouse MuSK (200RU) and a dilution series of the antibodies (mAbs and Fabs) was applied in order to be able to calculate the affinity.
# human MuSK [4] = molecular target: T1, human MuSK; test: Biacore, MuSK on chip (200RU), Fab dilution series
# From the text: as §2
# mouse MuSK [5] = molecular target: T2, mouse MuSK; test: Biacore, MuSK on chip (200RU), Fab dilution series
# From the text: as §2
EC50 (read off the curve) (human MuSK [1]),EC50 (read off the curve) (mouse MuSK [2]),"fold difference in affinity, human versus mouse MuSK (mouse MuSK [3])",Kd (human MuSK [4]),Kd (mouse MuSK [5]),Binder
~20 ng/mL,~20 ng/mL,–,–,–,"16F11 (antibody, V domains shown, human IgG1 with the LALA mutations (L234A, L235A); produced in HEK293 cells) VH: EVQLVESGGGLVQPGGSLSLSCVASGFTFSLYYMNWVRQAPGKGLEWLSVIDTHSIAYYADSVKGRFTISRDNVKNTLYLQLNNLKPEDTALYYCVLGRTALVRWGQGTQVTVSS VL: DIVMTQSPSSVTASVGEKVTINCKSSQSVVFGSNQKSYLNWYQQRPGQSPRLLIYYASTQESGIPDRFSGSGSTTDFTLTISSVQPEDAAVYYCQQAYSAPTFGSGTRLEIK"
–,–,≥ 1000 fold,0.07 nM,5.39 nM,"30E1 Fab (Fab, V domains shown, Fab format) VH: QVQVQESGPGLVKPSQTLSLTCTVSGGSITARYYSWSWIRQPPGKGLEWMGVIAYDGSTYYSPSLKSRTSISRDTSKNQFSLHLSSVTPDDTAVYYCARGSSRVAAAFDSWGQGTQVTVSS VL: SYELTQSPSVSVALRRTAKITCGGDNIGSKNTQWYQQKPGQAPVLVIYADSRRPSGIPERFSGSNSGNTATLTISGAQAEDEADYYCHVWDSSTNAWFGGGTHLTVL"
–,–,≥ 1000 fold,0.008 nM,2.42 nM,"30A11 Fab (Fab, V domains shown, Fab format) VH: QVQVQESGPGLVKPSQTLSLTCTVSGGSITARYYSWSWIRQPPGKGLEWMGVIAYDGSTYYSPSLKSRTSISRDTSKNQFSLHLSSVTPDDTAVYYCARGSSRVAAAFDSWGQGTQVTVSS VL: SYELTQSPSVTVALRQTAKITCGGDNIASKNVQWYQQKPGQAPSLVIWADSRRPSGIPVRFSGSNFGNTATLTISGAQAEDEADYYCQVWDSSTNVAVFGGGTHLTVL"
